Assay results from US20040018561.

What was measured:
[1] = system: N-2-[(7-methoxy-2-oxo-2H-chromen-4-yl)acetyl]-D-arginyl-L-prolyl-L-leucylglycyl-6-(benzyloxy)-L-norleucyl-3-[(2,4-dinitrophenyl)amino]-L-alanyl-L-alanyl-D-arginyl-D-alpha-glutamyl-D-argininamide
[2] = system: N-2-[(7-methoxy-2-oxo-2H-chromen-4-yl)acetyl]-D-arginyl-L-prolyl-L-leucylglycyl-6-phenoxy-L-norleucyl-3-[(2,4-dinitrophenyl)amino]-L-alanyl-L-alanyl-D-arginyl-D-alpha-glutamyl-D-argininamide
[3] = system: N-2-[(7-methoxy-2-oxo-2H-chromen-4-yl)acetyl]-D-arginyl-L-prolyl-L-leucylglycyl-L-leucyl-3-[(2,4-dinitrophenyl)amino]-L-alanyl-L-alanyl-D-arginyl-D-alpha-glutamyl-D-argininamide
[4] = system: N-2-[(7-methoxy-2-oxo-2H-chromen-4-yl)acetyl]-L-arginyl-L-prolyl-L-leucylglycyl-6-(benzyloxy)-L-norleucyl-3-[(2,4-dinitrophenyl)amino]-L-alanyl-L-alanyl-L-arginyl-L-alpha-glutamyl-L-argininamide
[5] = system: N-2-[(7-methoxy-2-oxo-2H-chromen-4-yl)acetyl]-L-arginyl-L-prolyl-L-leucylglycyl-L-leucyl-3-[(2,4-dinitrophenyl)amino]-L-alanyl-L-alanyl-D-arginyl-D-alpha-glutamyl-D-argininamide
[6] = system: N-2-[(7-methoxy-2-oxo-2H-chromen-4-yl)acetyl]-L-arginyl-L-prolyl-L-leucylglycyl-L-leucyl-3-[(2,4-dinitrophenyl)amino]-L-alanyl-L-alanyl-L-arginyl-L-alpha-glutamyl-L-argininamide

MMP-9, sequence (chain, as listed by the source): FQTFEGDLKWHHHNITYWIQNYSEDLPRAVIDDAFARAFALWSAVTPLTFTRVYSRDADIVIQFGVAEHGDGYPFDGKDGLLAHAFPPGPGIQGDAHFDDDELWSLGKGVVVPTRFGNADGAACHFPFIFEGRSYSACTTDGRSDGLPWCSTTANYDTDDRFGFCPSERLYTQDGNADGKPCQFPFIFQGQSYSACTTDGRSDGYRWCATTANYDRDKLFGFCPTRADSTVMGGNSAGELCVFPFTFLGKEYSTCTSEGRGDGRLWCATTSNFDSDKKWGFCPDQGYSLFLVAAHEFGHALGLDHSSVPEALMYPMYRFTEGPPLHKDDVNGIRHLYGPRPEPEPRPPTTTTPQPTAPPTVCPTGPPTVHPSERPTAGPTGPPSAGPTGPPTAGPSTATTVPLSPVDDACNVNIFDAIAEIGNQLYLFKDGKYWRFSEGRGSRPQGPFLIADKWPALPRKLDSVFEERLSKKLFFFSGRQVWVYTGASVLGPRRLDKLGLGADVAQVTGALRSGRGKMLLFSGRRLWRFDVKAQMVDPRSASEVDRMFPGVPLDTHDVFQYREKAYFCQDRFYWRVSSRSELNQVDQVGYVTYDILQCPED
MMP-8, sequence (chain, as listed by the source): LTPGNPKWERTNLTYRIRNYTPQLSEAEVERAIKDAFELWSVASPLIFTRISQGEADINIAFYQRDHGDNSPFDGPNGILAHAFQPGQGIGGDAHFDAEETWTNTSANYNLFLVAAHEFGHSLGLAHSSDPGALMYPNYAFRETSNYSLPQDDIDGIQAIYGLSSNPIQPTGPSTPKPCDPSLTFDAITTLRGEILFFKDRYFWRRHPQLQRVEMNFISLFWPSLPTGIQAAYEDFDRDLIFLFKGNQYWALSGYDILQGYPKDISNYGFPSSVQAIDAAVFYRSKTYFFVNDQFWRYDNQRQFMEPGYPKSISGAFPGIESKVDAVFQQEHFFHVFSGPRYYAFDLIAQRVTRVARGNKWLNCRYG
MMP-3, sequence (chain, as listed by the source): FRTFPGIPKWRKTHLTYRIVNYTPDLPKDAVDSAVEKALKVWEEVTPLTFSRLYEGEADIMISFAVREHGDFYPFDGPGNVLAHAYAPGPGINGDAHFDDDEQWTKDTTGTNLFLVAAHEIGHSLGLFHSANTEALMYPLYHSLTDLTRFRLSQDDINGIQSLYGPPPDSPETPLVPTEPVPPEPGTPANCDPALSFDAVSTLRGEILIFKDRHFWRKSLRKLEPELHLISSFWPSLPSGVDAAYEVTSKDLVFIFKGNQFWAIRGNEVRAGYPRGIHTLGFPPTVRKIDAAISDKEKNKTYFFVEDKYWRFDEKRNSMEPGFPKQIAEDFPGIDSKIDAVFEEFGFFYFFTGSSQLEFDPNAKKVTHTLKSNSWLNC

**Q.** What does the source list for MMP-3?
**A.** Km [1]: 28.9 µM; kcat/Km [1]: 1600 M⁻¹ s⁻¹; kcat/Km [2]: 0 M⁻¹ s⁻¹; Km [3]: 14 µM; kcat/Km [3]: 6300 M⁻¹ s⁻¹; Km [4]: 85.9 µM; kcat/Km [4]: 4800 M⁻¹ s⁻¹; Km [5]: 59.5 µM; kcat/Km [5]: 800 M⁻¹ s⁻¹; Km [6]: 38.7 µM; kcat/Km [6]: 9800 M⁻¹ s⁻¹

**Q.** Which results are given for MMP-8?
**A.** Km [1]: 3.3 µM; kcat/Km [1]: 146000 M⁻¹ s⁻¹; Km [2]: 4.4 µM; kcat/Km [2]: 522000 M⁻¹ s⁻¹; Km [3]: 16.7 µM; kcat/Km [3]: 139000 M⁻¹ s⁻¹; Km [4]: 9.1 µM; kcat/Km [4]: 179000 M⁻¹ s⁻¹; Km [5]: 13.3 µM; kcat/Km [5]: 456000 M⁻¹ s⁻¹; Km [6]: 20.1 µM; kcat/Km [6]: 381000 M⁻¹ s⁻¹

**Q.** What does the source list for MMP-13?
**A.** Km [1]: 1.5 µM; kcat/Km [1]: 1.58e+06 M⁻¹ s⁻¹; Km [2]: 1.2 µM; kcat/Km [2]: 2.93e+06 M⁻¹ s⁻¹; Km [3]: 9 µM; kcat/Km [3]: 296000 M⁻¹ s⁻¹; Km [4]: 0.9 µM; kcat/Km [4]: 4.24e+06 M⁻¹ s⁻¹; Km [5]: 4.7 µM; kcat/Km [5]: 4.08e+06 M⁻¹ s⁻¹; Km [6]: 3.9 µM; kcat/Km [6]: 3.92e+06 M⁻¹ s⁻¹

**Q.** Which Km [1] does the source give for MMP-9 here?
**A.** 3.3 µM

**Q.** What about the kcat/Km [1] of the same substance?
**A.** 319000 M⁻¹ s⁻¹

**Q.** What about the Km [2] of the same substance?
**A.** 1.4 µM

**Q.** And the kcat/Km [2]?
**A.** 1.91e+06 M⁻¹ s⁻¹

**Q.** And the Km [3]?
**A.** 6.4 µM

**Q.** And the kcat/Km [3]?
**A.** 418000 M⁻¹ s⁻¹

**Q.** What about the Km [4] of the same substance?
**A.** 2.3 µM

**Q.** And the kcat/Km [4]?
**A.** 1.47e+06 M⁻¹ s⁻¹

**Q.** What about the Km [5] of the same substance?
**A.** 8.2 µM

**Q.** And the kcat/Km [5]?
**A.** 1.33e+06 M⁻¹ s⁻¹

**Q.** And the Km [6]?
**A.** 6.2 µM

**Q.** What about the kcat/Km [6] of the same substance?
**A.** 1.29e+06 M⁻¹ s⁻¹
